Results on two molecules are retold here after article PMC10467427 (2023).

Where two headings read alike, the source gives them in different places.

The target in one experiment is T1, MBP:Hts^ALDO (Drosophila (S2 cell cDNA library)).
T1 chain: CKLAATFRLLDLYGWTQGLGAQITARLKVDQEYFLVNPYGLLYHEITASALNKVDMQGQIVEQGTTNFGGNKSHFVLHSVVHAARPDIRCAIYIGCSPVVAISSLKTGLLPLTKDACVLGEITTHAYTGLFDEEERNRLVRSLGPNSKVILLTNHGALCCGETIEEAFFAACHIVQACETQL

Experiment [1] concerns the target T2, MBP:Hts^FL (Drosophila (S2 cell cDNA library)).
T2 chain: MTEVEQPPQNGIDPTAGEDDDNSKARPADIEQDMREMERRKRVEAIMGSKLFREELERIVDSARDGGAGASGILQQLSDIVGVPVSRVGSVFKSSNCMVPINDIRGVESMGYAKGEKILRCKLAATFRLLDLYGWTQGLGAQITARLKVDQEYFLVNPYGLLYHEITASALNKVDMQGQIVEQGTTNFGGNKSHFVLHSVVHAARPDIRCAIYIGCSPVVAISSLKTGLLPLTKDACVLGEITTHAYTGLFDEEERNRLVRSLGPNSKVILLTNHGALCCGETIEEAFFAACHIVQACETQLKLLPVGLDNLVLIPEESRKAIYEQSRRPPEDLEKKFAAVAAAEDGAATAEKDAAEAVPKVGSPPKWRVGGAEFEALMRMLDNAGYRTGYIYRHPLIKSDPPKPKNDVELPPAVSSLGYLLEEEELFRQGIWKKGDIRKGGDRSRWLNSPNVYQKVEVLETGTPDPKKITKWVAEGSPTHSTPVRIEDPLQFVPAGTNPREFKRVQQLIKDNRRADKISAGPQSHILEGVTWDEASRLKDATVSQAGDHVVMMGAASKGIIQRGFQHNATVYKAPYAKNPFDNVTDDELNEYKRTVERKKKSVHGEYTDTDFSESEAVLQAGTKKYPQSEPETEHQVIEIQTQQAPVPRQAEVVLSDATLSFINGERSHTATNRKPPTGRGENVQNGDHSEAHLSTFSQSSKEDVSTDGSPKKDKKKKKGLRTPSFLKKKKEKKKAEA

Another experiment addresses T3, MBP:Hts^1-319 (Drosophila (S2 cell cDNA library)).
T3 chain: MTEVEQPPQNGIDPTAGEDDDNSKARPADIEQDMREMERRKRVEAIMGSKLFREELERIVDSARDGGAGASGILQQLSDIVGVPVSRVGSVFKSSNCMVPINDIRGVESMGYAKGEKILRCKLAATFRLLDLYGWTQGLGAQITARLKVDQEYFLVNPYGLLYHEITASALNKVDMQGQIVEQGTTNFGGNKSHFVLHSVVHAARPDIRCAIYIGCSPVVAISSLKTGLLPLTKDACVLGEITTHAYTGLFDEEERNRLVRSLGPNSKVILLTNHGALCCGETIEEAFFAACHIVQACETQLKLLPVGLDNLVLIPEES

For experiment [2], the target named is T2, MBP:Hts^FL.
For experiment [3], the target named is T4, GST-fused Pins^TPR domains (Drosophila (S2 cell cDNA library), UniProt Q9VB22 1-658).
T4 chain: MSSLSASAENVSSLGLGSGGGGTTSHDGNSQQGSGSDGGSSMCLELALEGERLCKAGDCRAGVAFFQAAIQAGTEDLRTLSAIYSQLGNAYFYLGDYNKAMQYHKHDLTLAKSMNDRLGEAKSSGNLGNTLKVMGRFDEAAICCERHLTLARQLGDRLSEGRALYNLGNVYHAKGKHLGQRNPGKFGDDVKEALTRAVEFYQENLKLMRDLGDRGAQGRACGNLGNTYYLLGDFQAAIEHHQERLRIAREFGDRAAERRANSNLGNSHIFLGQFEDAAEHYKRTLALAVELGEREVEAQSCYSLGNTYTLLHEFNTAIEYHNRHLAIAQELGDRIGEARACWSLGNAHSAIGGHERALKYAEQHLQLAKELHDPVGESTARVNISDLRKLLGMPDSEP

B1: Mud^CC-PBD (domain or fragment)
chain: KLALDCKILQAKYRDAKDEIKRCEKKIKDQRLEMEGKLEKMKNKMRSLYTAEVTRMKEKQERDAAKSASELEALTAQNAKYEEHTRKLSNQIVRLNEKILEQQKQHAIISTNLRHLQMQPISETKPSSTTLTVSSSSSAPNDDWQPFKRPNVPSSNLAMEDEEGEVFNNTYLTDLKLGRVPADMTAEELIYRNSLQPPHLKST
modifications: 6xHis tag removed by TEV. Limits not printed: start set just before L1788 (N-terminal end of the CC), end at the conventional PBD boundary (about 1982). Needs the NB isoform that includes the CC and PBD exons. Three copies follow from the predicted parallel trimer.
Usually Kd stands for the constant that tells how readily two partners part at equilibrium. A higher Kd goes with lower affinity. Regarding B1, the equilibrium dissociation constant (Kd) with MBP:Hts^ALDO was 760 nM; in the experiment with MBP:Hts^FL [1] it was 620 nM; with MBP:Hts^1-319, 550 nM; in the experiment with MBP:Hts^FL [2], 1620 nM; in experiment [3], 186 nM.

B2: Mud^CC-PBD L1788E/I1878D (ED) mutant (domain or fragment)
chain: KLALDCKIEQAKYRDAKDEIKRCEKKIKDQRLEMEGKLEKMKNKMRSLYTAEVTRMKEKQERDAAKSASELEALTAQNAKYEEHTRKLSNQIVRLNEKDLEQQKQHAIISTNLRHLQMQPISETKPSSTTLTVSSSSSAPNDDWQPFKRPNVPSSNLAMEDEEGEVFNNTYLTDLKLGRVPADMTAEELIYRNSLQPPHLKST
modifications: 6xHis tag removed by TEV. The mutations disrupt the coiled-coil trimer. Limits not given, set by convention as for the wild type.
Regarding B2, binding in experiment [3] was characterised by a dissociation constant (Kd) of 189 nM.
